# B1: pDAB105531: TraP8 v2 -- dgt-28 v5: binary construct TraP8 v2: dgt-28 v5 (SEQ ID NO:34) (nucleic acid)
# DNA: ATGGCTCAATCTAGCAGAATCTGCCACGGTGTGCAGAACCCATGTGTGATCATTTCCAATCTCTCCAAATCCAACCAGAACAAATCTCCTTTCTCAGTCAGCCTCAAGACTCACCAGCAGCAGCGTCGTGCTTACCAGATATCTAGCTGGGGATTGAAGAAGTCAAACAACGGGTCCGTGATTCGTCCGGTTAAGGCAGCAAGAGGGATGCCAGCCTTGTCTTTACCTGGATCAAAGAGTATCACAGCTAGGGCACTCTTTCTTGCTGCTGCTGCTGATGGGGTTACTACTTTGGTGAGGCCATTGAGAAGTGACGACACAGAAGGATTCGCTGAGGGGTTAGTTCGTTTAGGCTATCGTGTAGGGAGGACACCCGATACTTGGCAAGTCGATGGCAGACCACAAGGACCAGCAGTGGCTGAGGCTGACGTCTACTGTAGAGACGGAGCAACCACCGCTAGATTCTTGCCAACCTTAGCAGCTGCTGGTCACGGAACATACAGATTTGATGCTTCACCACAGATGAGGAGACGTCCTCTTTTGCCCTTAAGCAGAGCCTTGAGGGATTTGGGTGTCGATCTTAGACACGAAGAAGCTGAAGGTCATCACCCTCTGACTGTCCGTGCTGCTGGGGTTGAAGGAGGAGAGGTTACTTTGGATGCTGGTCAGTCAAGTCAGTATCTCACTGCCTTGTTGCTCCTTGGTCCCCTTACAAGACAAGGACTGAGGATAAGGGTTACTGATTTGGTGTCAGCACCATACGTGGAGATTACGCTTGCAATGATGAGGGCTTTCGGAGTTGAAGTGGCAAGGGAGGGAGATGTGTTCGTTGTTCCACCTGGTGGATATCGTGCAACTACGTATGCTATAGAACCCGACGCAAGTACTGCTTCTTACTTCTTCGCAGCTGCTGCTTTGACTCCTGGAGCTGAAGTGACTGTACCTGGGTTAGGCACGGGAGCACTTCAAGGAGATTTGGGATTTGTAGATGTCTTAAGGAGAATGGGAGCCGAGGTGTCCGTAGGAGCTGATGCAACCACTGTTAGAGGAACTGGTGAATTGCGTGGCCTTACAGCCAACATGAGAGACATAAGTGATACGATGCCGACCCTCGCTGCAATAGCACCCTTTGCTAGTGCTCCAGTTAGAATCGAGGATGTTGCCAACACTCGTGTCAAAGAATGTGACAGACTTGAGGCTTGTGCAGAGAACCTTAGGAGGTTGGGAGTAAGGGTTGCAACGGGTCCGGACTGGATTGAGATACACCCTGGTCCAGCTACTGGTGCTCAAGTCACAAGCTATGGTGATCACAGAATTGTGATGTCATTTGCAGTGACTGGACTTCGTGTGCCTGGGATCAGCTTCGACGACCCTGGCTGTGTTCGTAAGACTTTTCCTGGGTTTCACGAGGCTTTCGCAGAATTGAGGCGTGGCATTGGGAGCTGA
# modifications: In-frame fusion of dgt-28 v5 and TraP8 v2
# Tests used:
# Arabidopsis [1] = assay: dgt-28, dgt-32, dgt-33, dgt-3, dgt-7 transformed Arabidopsis (T1, T2, T3) response to postemergence glyphosate, % visual injury; type: in vivo, Arabidopsis thaliana; conditions: 14 days after application
# Text: Transgenic T1 Arabidopsis plants containing the dgt-28 transgene were sprayed with differing rates of glyphosate. Elevated rates were applied in this study to determine the relative levels of resistance (105, 420, 1,680 or 3,360 g ae/ha). A typical 1× usage rate of glyphosate that will control non-transformed Arabidopsis is 420 g ae/ha. […] The T1 Arabidopsis plants that were used in this study were variable copy number for the dgt-28 transgene. The low copy dgt-28 T1 Arabidopsis plants were self-pollinated and used to produce T2 plants.
# Results of Glyphosate Selection of Transformed dgt-28 Arabidopsis Plants. The Arabidopsis T1 transformants were first selected from the background of untransformed seed using a glufosinate selection scheme. Three flats or 30,000 seed were analyzed for each T1 construct. The T1 plants selected above were molecularly characterized and representative plants with variable copy number were subsequently transplanted to individual pots and sprayed with various rates of commercial glyphosate as previously described. The response of these plants is presented in terms of % visual injury 2 weeks after treatment (WAT). […] An arithmetic mean and standard deviation is presented for each construct used for Arabidopsis transformation. The range in individual response is also indicated in the last column for each rate and transformation. Wild-type, non-transformed Arabidopsis (c.v. Columbia) served as a glyphosate sensitive control.
# T2Arabidopsis Data. The second generation plants (T2) of selected T1 Arabidopsis events which contained low copy numbers of the dgt-28 transgene were further characterized for glyphosate tolerance. Glyphosate was applied as described previously. The response of the plants is presented in terms of % visual injury 2 weeks after treatment (WAT). […] An arithmetic mean and standard deviation are presented for each construct used for Arabidopsis transformation. The range in individual response is also indicated in the last column for each rate and transformation. Wild-type, non-transformed Arabidopsis (cv. Columbia) served as a glyphosate sensitive control. In the T2 generation hemizygous and homozygous plants were available for testing for each event and therefore were included for each rate of glyphosate tested. Hemizygous plants contain two different alleles at a locus as compared to homozygous plants which contain the same two alleles at a locus. Variability of response to glyphosate is expected in the T2 generation as a result of the difference in gene dosage for hemizygous as compared to homozygous plants. The variability in response to glyphosate is reflected in the standard deviation and range of response.
# T3 Arabidopsis Data. The third generation plants (T3) of selected T2 Arabidopsis events which contained low copy numbers of the dgt-28 transgene were further characterized for glyphosate tolerance. […] Glyphosate was applied as described previously. The response of the plants is presented in terms of % visual injury 2 weeks after treatment (WAT). […] An arithmetic mean and standard deviation are presented for each construct used for Arabidopsis transformation. The range in individual response is also indicated in the last column for each rate and transformation. Wild-type, non-transformed Arabidopsis (cv. Columbia) served as a glyphosate-sensitive control.
# Arabidopsis [2] = assay: Heritability progeny test of T1 families (T2 plants) with glufosinate, Arabidopsis; type: in vivo, Arabidopsis thaliana; conditions: progeny test of 100 T2 plants, glufosinate 200 g ae/ha
# Text: Heritability. Confirmed transgenic T1 Arabidopsis events were self-pollinated to produce T2 seed. These seed were progeny tested by applying Ignite™ herbicide containing glufosinate (200 g ae/ha) to 100 random T2 siblings. […] The T1 families (T2 plants) segregated in the anticipated 3 Resistant: 1 Sensitive model for a dominantly inherited single locus with Mendelian inheritance as determined by Chi square analysis (P>0.05). […] Seed were collected from 5 to 15 T2 individuals (T3 seed). Twenty-five T3 siblings from each of 3-4 randomly-selected T2 families were progeny tested as previously described.
# [3] = Table 8, T1 Arabidopsis, 105 g ae/ha glyphosate
# [4] = Table 8, T1 Arabidopsis, 420 g ae/ha glyphosate
# [5] = Table 8, T1 Arabidopsis, 1680 g ae/ha glyphosate
# [6] = Table 8, T1 Arabidopsis, 3360 g ae/ha glyphosate
# [7] = Table 10, T1 Arabidopsis, 1,680 g ae/ha glyphosate
# [8] = Table 12, T2 Arabidopsis, 1 copy, 420 g ae/ha glyphosate
# [9] = Table 12, T2 Arabidopsis, 1 copy, 840 g ae/ha glyphosate
# [10] = Table 12, T2 Arabidopsis, 1 copy, 1680 g ae/ha glyphosate
# [11] = Table 12, T2 Arabidopsis, 1 copy, 3360 g ae/ha glyphosate
molecule,measurement,setting,value
B1,% Injury Ave,Arabidopsis [1]; [3],10.8%
same,% Injury Range (%),Arabidopsis [1]; [3],0-25%
same,No. plants with 20-40% injury,Arabidopsis [1]; [3],1
same,No. plants with <20% injury,Arabidopsis [1]; [3],3
same,No. plants with >40% injury,Arabidopsis [1]; [3],0
same,% Injury Ave,Arabidopsis [1]; [4],22.8%
same,% Injury Range (%),Arabidopsis [1]; [4],8-50%
same,No. plants with 20-40% injury,Arabidopsis [1]; [4],0
same,No. plants with <20% injury,Arabidopsis [1]; [4],3
same,No. plants with >40% injury,Arabidopsis [1]; [4],1
same,% Injury Ave,Arabidopsis [1]; [5],5.3%
same,% Injury Range (%),Arabidopsis [1]; [5],0-8%
same,No. plants with 20-40% injury,Arabidopsis [1]; [5],0
same,No. plants with <20% injury,Arabidopsis [1]; [5],4
same,No. plants with >40% injury,Arabidopsis [1]; [5],0
same,% Injury Ave,Arabidopsis [1]; [6],29.3%
same,% Injury Range (%),Arabidopsis [1]; [6],22-35%
same,No. plants with 20-40% injury,Arabidopsis [1]; [6],4
same,No. plants with <20% injury,Arabidopsis [1]; [6],0
same,No. plants with >40% injury,Arabidopsis [1]; [6],0
same,% Injury Ave,Arabidopsis [1]; [7],5.3%
same,% Injury Range (%),Arabidopsis [1]; [7],0-8%
same,No. plants with 20-40% injury,Arabidopsis [1]; [7],0
same,No. plants with <20% injury,Arabidopsis [1]; [7],4
same,No. plants with >40% injury,Arabidopsis [1]; [7],0
same,% Injury Ave,Arabidopsis [1]; [8],0.5%
same,% Injury Range (%),Arabidopsis [1]; [8],0-2%
same,No. plants with 20-40% injury,Arabidopsis [1]; [8],0
same,No. plants with <20% injury,Arabidopsis [1]; [8],4
same,No. plants with >40% injury,Arabidopsis [1]; [8],0
same,% Injury Ave,Arabidopsis [1]; [9],1.3%
same,% Injury Range (%),Arabidopsis [1]; [9],0-5%
same,No. plants with 20-40% injury,Arabidopsis [1]; [9],0
same,No. plants with <20% injury,Arabidopsis [1]; [9],4
same,No. plants with >40% injury,Arabidopsis [1]; [9],0
same,% Injury Ave,Arabidopsis [1]; [10],7.5%
same,% Injury Range (%),Arabidopsis [1]; [10],5-15%
same,No. plants with 20-40% injury,Arabidopsis [1]; [10],0
same,No. plants with <20% injury,Arabidopsis [1]; [10],4
same,No. plants with >40% injury,Arabidopsis [1]; [10],0
same,% Injury Ave,Arabidopsis [1]; [11],7.5%
same,% Injury Range (%),Arabidopsis [1]; [11],0-15%
same,No. plants with 20-40% injury,Arabidopsis [1]; [11],0
same,No. plants with <20% injury,Arabidopsis [1]; [11],4
same,No. plants with >40% injury,Arabidopsis [1]; [11],0
same,T1 Families Tested Segregating at 1 Locus (%),Arabidopsis [2],100%
